Measured values: patent publication US20140087995A1 (published 2014)
Blank lines part the entries; values can stand above or below the binder they belong to. Numbered stars: 1 amine (or outer) side, 2 acyl side, 3 side chain; on linkers, the order of the positions; unused ones are H or OH. Bridge positions count the residues as written; N and C are the ends. Side chains are listed from the residue outwards. Ends that are not written are not given here. * marks the point of attachment. C20 diacid = O=C(O)CCCCCCCCCCCCCCCCCCC(=O)*; γGlu = O=C(O)[C@H](CCC(=O)[*:2])N[*:1]; AEEA = NCCOCCOCC(=O)O

Molecular target: T1, human calcitonin receptor (human, UniProt P30988 25-474)
T1 sequence (looked up): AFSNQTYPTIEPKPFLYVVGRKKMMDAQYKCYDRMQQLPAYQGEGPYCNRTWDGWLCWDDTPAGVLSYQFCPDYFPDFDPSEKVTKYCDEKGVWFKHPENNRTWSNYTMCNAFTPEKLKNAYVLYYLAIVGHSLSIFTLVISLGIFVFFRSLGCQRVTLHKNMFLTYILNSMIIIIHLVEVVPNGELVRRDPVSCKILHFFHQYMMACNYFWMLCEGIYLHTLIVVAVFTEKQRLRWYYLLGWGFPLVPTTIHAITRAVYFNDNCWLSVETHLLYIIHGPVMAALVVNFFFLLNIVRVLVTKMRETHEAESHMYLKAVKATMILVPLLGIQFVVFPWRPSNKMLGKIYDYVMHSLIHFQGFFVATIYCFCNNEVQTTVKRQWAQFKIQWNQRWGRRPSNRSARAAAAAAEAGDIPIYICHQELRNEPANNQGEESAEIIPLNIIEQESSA
Assay: cell-based or functional assay

hCTR funct. EC50: 3.12 nM
B1: N^ε1-[2-[2-[2-[[(4S)-4-carboxy-4-(19-carboxynonadecanoylamino)butanoyl]amino]ethoxy]ethoxy]acetyl]-[Arg17,Pro21,Pro27,Pro31,His35]-h-amylin (peptide)
peptide: K([AEEA-γGlu-C20 diacid])CNTATCATQRLANFLRHSSPNFGAIPSSTPVGSHTY-NH2
modifications: disulfide 2-7; N-terminus assumed
SMILES: CC[C@H](C)[C@H](NC(=O)[C@H](C)NC(=O)CNC(=O)[C@H](Cc1ccccc1)NC(=O)[C@H](CC(N)=O)NC(=O)[C@@H]1CCCN1C(=O)[C@H](CO)NC(=O)[C@H](CO)NC(=O)[C@H](Cc1c[nH]cn1)NC(=O)[C@H](CCCNC(=N)N)NC(=O)[C@H](CC(C)C)NC(=O)[C@H](Cc1ccccc1)NC(=O)[C@H](CC(N)=O)NC(=O)[C@H](C)NC(=O)[C@H](CC(C)C)NC(=O)[C@H](CCCNC(=N)N)NC(=O)[C@H](CCC(N)=O)NC(=O)[C@@H](NC(=O)[C@H](C)NC(=O)[C@@H]1CSSC[C@H](NC(=O)[C@@H](N)CCCCNC(=O)COCCOCCNC(=O)CC[C@H](NC(=O)CCCCCCCCCCCCCCCCCCC(=O)O)C(=O)O)C(=O)N[C@@H](CC(N)=O)C(=O)N[C@@H]([C@@H](C)O)C(=O)N[C@@H](C)C(=O)N[C@@H]([C@@H](C)O)C(=O)N1)[C@@H](C)O)C(=O)N1CCC[C@H]1C(=O)N[C@@H](CO)C(=O)N[C@@H](CO)C(=O)N[C@H](C(=O)N1CCC[C@H]1C(=O)N[C@H](C(=O)NCC(=O)N[C@@H](CO)C(=O)N[C@@H](Cc1c[nH]cn1)C(=O)N[C@H](C(=O)N[C@@H](Cc1ccc(O)cc1)C(N)=O)[C@@H](C)O)C(C)C)[C@@H](C)O
notes: analogue of human amylin; also called compound 57

hCTR funct. EC50: 2.39 nM
B2: N^ε1-[2-[2-[2-[[(4S)-4-carboxy-4-(19-carboxynonadecanoylamino)butanoyl]amino]ethoxy]ethoxy]acetyl]-[Arg17,Pro21,Pro27,Pro31]-h-amylin (peptide)
peptide: K([AEEA-γGlu-C20 diacid])CNTATCATQRLANFLRHSSPNFGAIPSSTPVGSNTY-NH2
modifications: disulfide 2-7; N-terminus assumed
SMILES: CC[C@H](C)[C@H](NC(=O)[C@H](C)NC(=O)CNC(=O)[C@H](Cc1ccccc1)NC(=O)[C@H](CC(N)=O)NC(=O)[C@@H]1CCCN1C(=O)[C@H](CO)NC(=O)[C@H](CO)NC(=O)[C@H](Cc1c[nH]cn1)NC(=O)[C@H](CCCNC(=N)N)NC(=O)[C@H](CC(C)C)NC(=O)[C@H](Cc1ccccc1)NC(=O)[C@H](CC(N)=O)NC(=O)[C@H](C)NC(=O)[C@H](CC(C)C)NC(=O)[C@H](CCCNC(=N)N)NC(=O)[C@H](CCC(N)=O)NC(=O)[C@@H](NC(=O)[C@H](C)NC(=O)[C@@H]1CSSC[C@H](NC(=O)[C@@H](N)CCCCNC(=O)COCCOCCNC(=O)CC[C@H](NC(=O)CCCCCCCCCCCCCCCCCCC(=O)O)C(=O)O)C(=O)N[C@@H](CC(N)=O)C(=O)N[C@@H]([C@@H](C)O)C(=O)N[C@@H](C)C(=O)N[C@@H]([C@@H](C)O)C(=O)N1)[C@@H](C)O)C(=O)N1CCC[C@H]1C(=O)N[C@@H](CO)C(=O)N[C@@H](CO)C(=O)N[C@H](C(=O)N1CCC[C@H]1C(=O)N[C@H](C(=O)NCC(=O)N[C@@H](CO)C(=O)N[C@@H](CC(N)=O)C(=O)N[C@H](C(=O)N[C@@H](Cc1ccc(O)cc1)C(N)=O)[C@@H](C)O)C(C)C)[C@@H](C)O
notes: analogue of human amylin; also called compound 49
